{"source": "patent US20250051443A1", "about": "(NATIONAL RESEARCH COUNCIL OF CANADA, published 2025)", "binders": {"B1": {"name": "F332-7E3 (antibody, mouse IgG2a, V domains shown)", "VH": "QVQLQQPGAELGKPGTSVKLSCKASGYTFTSYWIHWVKQRPGQGLEWIGNINPNSGSINYNEKFKSKATLTVDKSSSTAYMQLSTLTSEDFAVYYCTRDTSGQYYFDYWGQGTTLTVSS", "VL": "DIVMSQSPSSLAVSAGEKVTMSCKSSQSLLNSRTRKNYLAWYQQKPGQSPKLLIYWASTRESGVPDRFTGSGSGTDFTLTISSVQAEDLAVYYCKQSYHLRTFGGGTKLEIK", "notes": "also called F332-7E3-2"}, "B2": {"name": "F332-10B6 (antibody, mouse IgG2a, V domains shown)", "VH": "QVQLQQPGAELGKPGTSVNLSCKASGYTFTDYWIHWVKQRPGQGLEWIGNINPNSGDTNYNENFKTKATLTVDRSSSTAYMQLSSLTSEDSAVYYCTRDISGQYYFDFWGQGTTLTVSS", "VL": "B1 VL with K95I, H99N", "notes": "also called F332-10B6-2; F332-12B5-1"}, "B3": {"name": "F332-5D4 (antibody, mouse IgG2b, V domains shown)", "VH": "B1 VH with I34M, S55G, S57D, I58S, K74M, F91S, T100I, Y108F, T114S, S118F", "VL": "B1 VL with V3L, K18Q, Y55F, E61K, D76Y, S82N, A86T, K95T, H99S", "notes": "also called F332-5D4-2; F332-5D4 (5F8)"}, "B4": {"name": "F332-7B7 (antibody, mouse IgG2a, V domains shown)", "VH": "B1 VH with A9T, S31N, I34M, I58T, E62Q, V72L, L83F, F91S, T100S", "VL": "B1 VL with K95I, Y98F", "notes": "also called F332-7B7-2"}, "B5": {"name": "F332-8F7 (antibody, mouse IgG2a, V domains shown)", "VH": "B1 VH with I58T, S66N, Y80S, F91S, T100I", "VL": "B1 VL with A15T, E17G, K18E, K95I, H99S, E110G", "notes": "also called F332-8F7-3"}, "B6": {"name": "F332-12F6 (antibody, mouse IgG2a, V domains shown)", "VH": "B1 VH with I58T, F91S, T100I", "VL": "B1 VL with N37S, K95I, H99N", "notes": "also called F332-12F6-2"}}, "note": "Changes are numbered by the printed parent chain."}
{"target": "T1, human CD3 (human, UniProt P07766 23-207; P09693 23-182; P04234 22-171)", "T1 construct": "whole, on cells; also called CD3 on Jurkat T cells; CD3 on primary human T cells", "assay": "flow competition on Jurkat, 100 nM unlabeled mAb; competitor AF488-SK7 1.5 nM", "description": "(§1) In order to evaluate whether anti-CD3 monoclonal antibodies bind to the same epitope region, flow cytometry competition experiments on Jurkat cells were performed.\n(§2) To that effect, a fixed concentration of the indicated AF488-labeled mAb were incubated with 100 nM of unlabeled monoclonal antibodies to assess if their binding capacity was impaired in presence of unlabeled mAbs. […] The AF488-OKT3 mIgG2b was labeled in-house using AlexaFluor488 protein labelling kit (Invitrogen #A10235) following manufacturer's instruction. The free dye removal step was done using Zeba™ Spin Desalting Columns, 7K MWCO (Thermo Scientific #89890). The final product was analyzed by UPLC-SEC to ensure the integrity of the labeled mAb.", "units": {"% residual fluorescence of labeled mAb": "%"}}
{"binder": "B1", "% residual fluorescence of labeled mAb": 45}
{"binder": "B2", "% residual fluorescence of labeled mAb": 56}
{"binder": "B3", "% residual fluorescence of labeled mAb": 49}
{"binder": "B4", "% residual fluorescence of labeled mAb": 53}
{"binder": "B5", "% residual fluorescence of labeled mAb": 39}
{"binder": "B6", "% residual fluorescence of labeled mAb": 42}
{"target": "T1, human CD3", "assay": "apparent KD (KDapp), flow cytometry titration on Jurkat cells", "description": "Unless otherwise stated, all media are kept are 4° C. and all incubations are performed on wet ice. Exponentially growing Jurkat cells were centrifuged and resuspended in complete medium at a cell density of 2×10⁶ cells/mL. Fifty μL/well of cells were distributed in a polypropylene v-bottom 96 well plate and serial 1/3 dilutions of purified mAbs starting at 300 nM were added and incubated for 2 hours. Cells were washed twice by centrifugation and further incubated with a FITC labeled F(ab′)2 goat anti-mouse antibody (Fc specific, #115-096-071, Jackson Immunoresearch, Cedarlane, Burlington, ON) for an hour. Cells were washed and re-suspended in medium containing Propidium iodide to exclude dead cells from analysis. Samples were filtered through a 60 μm nylon mesh filter plate (Millipore, Ireland) to remove cell aggregates. Flow cytometry analyses were performed on 2,000 viable single-cells events gated on forward scattering, side scattering parameters and propidium iodide dye exclusion using a BD-LSRFortessa flow cytometer (Becton-Dickinson Biosciences, CA, USA) and a standard filter set using BD FACSDiva™ acquisition software, according to manufacturer's instructions.", "units": {"Kd": "nM"}}
{"binder": "B1", "Kd": 1.3}
{"binder": "B2", "Kd": 3.7}
{"binder": "B3", "Kd": 0.7}
{"binder": "B4", "Kd": 0.6}
{"binder": "B5", "Kd": 0.8}
{"binder": "B6", "Kd": 0.6}
{"target": "T1, human CD3", "assay": "cell-based or functional assay", "units": {"% max ref. OKT3 (dTomato activation)": "%", "EC50 of dTomato induction (CD69 promoter), Jurkat-CD69-dTomato cells, 24 h": "µg/mL"}}
{"binder": "B1", "% max ref. OKT3 (dTomato activation)": 75, "EC50 of dTomato induction (CD69 promoter), Jurkat-CD69-dTomato cells, 24 h": 0.24}
{"binder": "B2", "% max ref. OKT3 (dTomato activation)": 60, "EC50 of dTomato induction (CD69 promoter), Jurkat-CD69-dTomato cells, 24 h": 0.23}
{"binder": "B3", "% max ref. OKT3 (dTomato activation)": 109, "EC50 of dTomato induction (CD69 promoter), Jurkat-CD69-dTomato cells, 24 h": 0.27}
{"binder": "B4", "% max ref. OKT3 (dTomato activation)": 97, "EC50 of dTomato induction (CD69 promoter), Jurkat-CD69-dTomato cells, 24 h": 0.25}
{"binder": "B5", "% max ref. OKT3 (dTomato activation)": 80, "EC50 of dTomato induction (CD69 promoter), Jurkat-CD69-dTomato cells, 24 h": 0.22}
{"binder": "B6", "% max ref. OKT3 (dTomato activation)": 87, "EC50 of dTomato induction (CD69 promoter), Jurkat-CD69-dTomato cells, 24 h": 0.25}
{"target": "T1, human CD3", "assay": "flow cytometry, hybridoma supernatant on CD3+ Jurkat cells", "description": "Cells were stained with either negative control mouse IgG (Jackson Immunoresearch cat #115-000-003) or an anti-GFP 3E6 mAb supernatant or tested hybridoma supernatant. Specific binding was reflected by the increase in the mean fluorescent intensity of antibody binding to Jurkat T-cells (FIGS. 1A to 1F, grey histograms) compared to the Jurkat CD3 negative cell line J.RT3-T3.5 (FIGS. 1A to 1F, open histograms). AF488 labeled positive control mAb OKT3 was also analyzed.", "units": {"MFI": "MFI"}}
{"binder": "B1", "MFI": 354}
{"binder": "B2", "MFI": 143}
{"binder": "B3", "MFI": 326}
{"binder": "B4", "MFI": 302}
{"binder": "B5", "MFI": 312}
{"binder": "B6", "MFI": 369}
{"target": "T2, Cynomolgus CD3 (Cynomolgus, UniProt Q95LI5 22-198; Q95LI7 23-181; Q95LI8 22-171)", "T2 construct": "whole, on cells; also called CD3 on Cynomolgus PBMCs; CD3 on HSC-F Cynomolgus T cell line", "T2 sequence (Q95LI5 22-198, chain 1 of 3)": "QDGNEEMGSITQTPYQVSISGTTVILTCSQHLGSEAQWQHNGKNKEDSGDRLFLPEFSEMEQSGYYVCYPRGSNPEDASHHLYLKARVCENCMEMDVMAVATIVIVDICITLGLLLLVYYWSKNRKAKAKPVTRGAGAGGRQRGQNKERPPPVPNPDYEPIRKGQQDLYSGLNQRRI", "T2 sequence (Q95LI7 23-181, chain 2 of 3)": "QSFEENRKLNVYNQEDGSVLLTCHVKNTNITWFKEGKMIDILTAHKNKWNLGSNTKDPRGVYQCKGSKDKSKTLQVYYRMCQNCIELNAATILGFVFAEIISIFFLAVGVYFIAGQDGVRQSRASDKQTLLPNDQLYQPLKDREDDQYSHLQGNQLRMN", "T2 sequence (Q95LI8 22-171, chain 3 of 3)": "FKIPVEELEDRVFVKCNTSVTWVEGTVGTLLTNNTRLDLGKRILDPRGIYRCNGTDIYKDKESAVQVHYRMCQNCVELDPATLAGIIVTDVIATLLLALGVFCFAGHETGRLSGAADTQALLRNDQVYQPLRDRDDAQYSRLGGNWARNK", "assay": "apparent KD (KDapp), flow cytometry titration on cynomolgus HSC-F T cell line", "description": "To characterize potential cross-reactivity of the anti-human CD3 mAbs to NHP T cells, dose response flow cytometry titration studies were performed on both freshly obtained Cynomolgus PBMCs (Comparative Medicine and Animal Resources Centre—McGill University) or the Cynomolgus derived T cell line, HSC-F (Non-Human Primate Reagent Resource—NIH). Binding studies on fresh Cynomolgus PBMCs was performed on a subset of anti-CD3 mAbs (FIG. 4) whereas the Herpesvirus saimiri immortalized Cynomolgus T cell line HSC-F was employed for further evaluations (FIGS. 5A to 5C). KDapp values were calculated using a non-linear regression model of one-site binding with Hill slope (GraphPad Prism) and tabulated (Table 3b). Similar KDapp values for anti-CD3 mAb 1E2 obtained from binding to fresh Cynomolgus PBMCs (KDapp=0.28 nM) or the HSC-F T cell line (KDapp=0.39 nM) indicated the HSC-F cell line was a suitable surrogate for ex vivo NHP T cells.\nHSC-F T cells obtained from the Non-Human Primate Reagent Resource (NIH) were maintained in culture in RPMI media containing 20% FBS and 40 IU/mL recombinant human IL2. 100K HSC-F cells in logarithmic cell growth were treated with graded doses of the anti-CD3 mAbs starting at 100 nM in staining buffer (SB; PBS/1% BSA/0.01% NaN3) for 2 hours at 4° C. in 96 w V-bottom plates. Following plate washing with SB, the cell pellets were resuspended with 25 μL of goat (Fab′)₂ anti-mouse IgG (H+L)− APC secondary antibody (final 5 μg/mL), incubated for 30 minutes at 4° C., followed by flow cytometry analysis. The commercial NHP cross-reactive SP34.2 anti-CD3 mAb (BD Biosciences), recombinant anti-human OKT-3 IgG2b (in house produced) and non-specific mIgG were employed as controls. 20K live events were acquired on a BD LSRFortessa flow analyzer and mean fluorescence intensities (MFI) calculated after subtraction of secondary antibody alone values. Using GraphPad Prism software, the data were analyzed using a one site specific binding with Hill slope non-linear regression model to calculate KDapp and BMax values (See Table 2).", "units": {"Kd": "nM"}}
{"binder": "B1", "Kd": 0.31}
{"binder": "B2", "Kd": 2}
{"binder": "B3", "Kd": 0.64}
{"binder": "B4", "Kd": 0.28}
{"binder": "B5", "Kd": 0.97}
{"binder": "B6", "Kd": 0.61}
{"target": "T1, human CD3", "assay": "flow competition on Jurkat, 100 nM unlabeled mAb; competitor AF488-SP34.2 20 nM", "description": "as §1, §2", "units": {"% residual fluorescence of labeled mAb": "%"}}
{"binder": "B1", "% residual fluorescence of labeled mAb": 12}
{"binder": "B2", "% residual fluorescence of labeled mAb": 32}
{"binder": "B3", "% residual fluorescence of labeled mAb": 10}
{"binder": "B4", "% residual fluorescence of labeled mAb": 9}
{"binder": "B5", "% residual fluorescence of labeled mAb": 10}
{"binder": "B6", "% residual fluorescence of labeled mAb": 7}
{"target": "T1, human CD3", "assay": "flow competition on Jurkat, 100 nM unlabeled mAb; competitor AF488-UCHT1 5 nM", "description": "as §1, §2", "units": {"% residual fluorescence of labeled mAb": "%"}}
{"binder": "B1", "% residual fluorescence of labeled mAb": 67}
{"binder": "B2", "% residual fluorescence of labeled mAb": 80}
{"binder": "B3", "% residual fluorescence of labeled mAb": 73}
{"binder": "B4", "% residual fluorescence of labeled mAb": 79}
{"binder": "B5", "% residual fluorescence of labeled mAb": 59}
{"binder": "B6", "% residual fluorescence of labeled mAb": 63}
{"target": "T1, human CD3", "assay": "flow competition on Jurkat, 100 nM unlabeled mAb; competitor AF488-OKT-3 mIgG2b 1.5 nM", "description": "as §1, §2", "units": {"% residual fluorescence of labeled mAb": "%"}}
{"binder": "B1", "% residual fluorescence of labeled mAb": 79}
{"binder": "B2", "% residual fluorescence of labeled mAb": 94}
{"binder": "B3", "% residual fluorescence of labeled mAb": 93}
{"binder": "B4", "% residual fluorescence of labeled mAb": 86}
{"binder": "B5", "% residual fluorescence of labeled mAb": 87}
{"binder": "B6", "% residual fluorescence of labeled mAb": 82}
{"target": "T1, human CD3", "assay": "apparent KD (KDapp), flow cytometry titration on purified primary human T cells", "description": "The binding characteristics of the purified anti-CD3 mAbs were assessed in titration studies on purified human primary T cells from different donor samples. Fresh ex vivo peripheral blood mononuclear cells (PBMCs) were obtained via density centrifugation over Ficoll-Paque using standard procedures and untouched T cell fractions obtained from PBMCs by negative pan-T cell selection and magnetic cell sorting. Starting from 300 nM concentrations of the anti-CD3 mAbs, eight point binding curves were generated from the resultant mean fluorescence intensity (MFI) values obtained through detection of labelled secondary antibody to bound CD3 in flow cytometry experiments (FIGS. 3A and 3B). Both commercial mouse anti-human CD3 mAb (OKT-3; Biolegend) and an in house generated IgG1 version of OKT-3 were employed as positive controls together with a non-specific mouse IgG serving as a negative binding control. Following curve fit analysis using one-site specific binding with Hill slope, the KDapp (concentration needed to achieve a half-maximum binding at equilibrium) for each mAb was calculated (Table 2).\nEight point binding titrations were performed with the anti-CD3 mAbs starting at either 300 or 100 nM on freshly purified human T cells obtained through negative selection from PBMC fractions. Briefly, 1×10⁵ human T cells (50 μL of staining buffer (SB; PBS/1% BSA/0.01% NaN3) were incubated with graded dilutions of the anti-CD3 mAbs in SB ([…]) for 2 hours at 4° C. in 96 w U-bottom plates, followed by plate washing with SB ([…]). Cell pellets were resuspended with 25 μL of a 0.25 mg/mL solution of the goat (Fab′)₂ anti-mouse IgG (H+L)− APC secondary antibody in SB, incubated at 4° C. (30 min.), washed 1× with SB, and resuspended for flow analysis. Recombinant anti-human OKT-3 IgG2b (in house produced) and non-specific mIgG were employed similarly as positive and negative controls respectively. 10K live events were acquired on a BD LSRFortessa flow analyzer and mean fluorescence intensities (MFI) calculated after subtraction of secondary antibody alone values. Using GraphPad Prism software, the data were analyzed using a one site specific binding with Hill slope non-linear regression model to calculate KDapp and BMax values (See Table 2).", "units": {"Kd": "nM"}}
{"binder": "B1", "Kd": 0.22}
{"binder": "B2", "Kd": 30.1}
{"binder": "B3", "Kd": 0.61}
{"binder": "B4", "Kd": 0.23}
{"binder": "B5", "Kd": 0.26}
{"binder": "B6", "Kd": 0.2}
